6 molecules from US20180244769A1 (Ablynx, published 2018) can be followed below.

One assay addresses T1, rat P2X7 (rP2X7) (Rattus norvegicus, UniProt Q64663 1-595).
T1 sequence: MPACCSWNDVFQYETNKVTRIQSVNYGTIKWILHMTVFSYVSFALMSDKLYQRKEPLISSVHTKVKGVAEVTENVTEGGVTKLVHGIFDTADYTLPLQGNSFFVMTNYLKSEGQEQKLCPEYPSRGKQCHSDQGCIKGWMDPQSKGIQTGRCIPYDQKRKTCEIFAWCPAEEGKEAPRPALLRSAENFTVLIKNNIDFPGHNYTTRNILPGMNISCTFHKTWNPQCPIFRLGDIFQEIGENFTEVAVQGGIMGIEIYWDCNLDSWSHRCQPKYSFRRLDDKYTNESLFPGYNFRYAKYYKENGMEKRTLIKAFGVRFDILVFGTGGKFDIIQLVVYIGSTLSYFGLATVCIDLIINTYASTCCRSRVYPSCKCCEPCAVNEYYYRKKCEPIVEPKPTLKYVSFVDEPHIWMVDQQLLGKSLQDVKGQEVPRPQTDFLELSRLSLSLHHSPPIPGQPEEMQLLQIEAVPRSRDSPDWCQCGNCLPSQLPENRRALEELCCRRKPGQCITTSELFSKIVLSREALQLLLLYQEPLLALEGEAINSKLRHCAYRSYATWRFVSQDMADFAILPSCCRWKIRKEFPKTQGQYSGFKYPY
Put plainly: flow cytometry, HEK cells co-transfected with GFP and rP2X7, detection with Alexa647 anti-mouse IgG. An excerpt: In order to verify the specificity of the selected Nbs and to determine whether the Nbs would bind also to mouse P2X7 or rat P2X7, HEK cells were co-transfected with expression constructs for GFP and either hP2X7, mP2X7, or rP2X7. Twenty four hours post transfection cells were stained with Nb-Fc fusion proteins or mAb L4 before FACS analyses (FIG. 3). […] By comparison, previously described Nbs 13A7 and 14D5 (WO 2010/070145) recognize mP2X7, but not hP2X7 or rP2X7, mAb L4 recognizes hP2X7 and rP2X7, but not mP2X7.

Assay [1] deals with human P2X7 (hP2X7) (human) (UniProt Q99572). As to the kind of experiment: flow cytometry, HEK cells co-transfected with GFP and hP2X7, bound antibody detected with Alexa647 anti-mouse IgG; other quadrants: UL 72, LL 26, LR 0.5.
Sequence of human P2X7 (hP2X7) (human) (Q99572 whole entry): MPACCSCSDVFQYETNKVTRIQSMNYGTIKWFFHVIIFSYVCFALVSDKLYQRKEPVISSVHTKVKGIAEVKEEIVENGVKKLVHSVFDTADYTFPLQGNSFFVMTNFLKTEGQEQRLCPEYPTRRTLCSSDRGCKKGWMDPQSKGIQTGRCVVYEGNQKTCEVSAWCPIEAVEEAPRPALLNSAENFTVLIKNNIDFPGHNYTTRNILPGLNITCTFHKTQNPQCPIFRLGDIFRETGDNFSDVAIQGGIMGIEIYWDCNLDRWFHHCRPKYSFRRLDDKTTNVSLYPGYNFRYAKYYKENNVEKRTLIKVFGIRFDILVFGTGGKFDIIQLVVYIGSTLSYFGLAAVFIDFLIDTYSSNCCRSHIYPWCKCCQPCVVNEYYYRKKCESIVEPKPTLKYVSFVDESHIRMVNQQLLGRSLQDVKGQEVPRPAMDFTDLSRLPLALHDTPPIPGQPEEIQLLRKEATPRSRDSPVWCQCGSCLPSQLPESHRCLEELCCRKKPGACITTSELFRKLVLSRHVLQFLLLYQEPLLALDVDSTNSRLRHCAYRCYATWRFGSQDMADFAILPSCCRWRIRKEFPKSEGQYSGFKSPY
Assay [2] has the same target. As to the kind of experiment: cell-based or functional assay.
Assay [3] shares this target. As to the kind of experiment: flow cytometry, HEK cells co-transfected with GFP and hP2X7, bound antibody detected with Alexa647 anti-mouse IgG; other quadrants: UL 71, LL 27, LR 0.5.
The target is the same in assay [4]. As to the kind of experiment: flow cytometry, HEK cells co-transfected with GFP and hP2X7, bound antibody detected with Alexa647 anti-mouse IgG; other quadrants: UL 1.5, LL 16, LR 11.

B1: 14D5-Fc (Nb-Fc fusion protein of Nb 14D5) (Fc fusion)
chain: KVQLVESGGGLVQAGGSLRLSCAASGSPISSYAMGWYRQAPGKPRELVARIYTGGTAWYEDSVKGRFTISRDNAQNTVYLQMNSLKSEDTAVYYCHGRVRYDYWGQGTQVTVSS
notes: Nb-Fc fusion; not shown: Fc part
For B1, the binding result with rat P2X7 (rP2X7) was “no binding”. In addition, in assay [1], the % of cells in the GFP+ / anti-mIgG A647+ quadrant (upper right) worked out at 1.2%.

B2: Nb 1c113 (monovalent) (VHH)
VHH: EVQLVESGGGLVQPGGSLTLSCAASGIAFNYYSMSWHRQAPGKQRTLVADISPGGHTEYEDSVKGRFTISRDNFKNTMTLHMNSLKPEDTAVYFCAARLRFEVSSNYWGQGTQVTVSS
In assay [2], B2 yielded an IC50 [nM], blockade of L-selectin (CD62L) shedding in transfected HEK cells, 4 mM ATP of over 185 nM and an IC50 [ng/ml], blockade of L-selectin (CD62L) shedding in transfected HEK cells, 4 mM ATP of over 2800 ng/mL.

B3: 13A7-Fc (Nb-Fc fusion protein of Nb 13A7) (Fc fusion)
chain: EVQLVESGGGLVQPGESLRLSCTASRFMLDYYDIGWFRQAPGKEREGVSCRFTNDGSTAYADSVKGRFTISRDIVKHTVYLQMNSLQPEDTAVYYCAAGPLTKRRQCVPGDFSMDFWGEGTLVTVSS
notes: Nb-Fc fusion; also called fluorochrome-conjugated Nb 13A7; not shown: Fc part
For the molecule B3, the binding result with rat P2X7 (rP2X7) was “no binding”. The % of cells in the GFP+ / anti-mIgG A647+ quadrant (upper right) in assay [3] was found to be 1.2%.

B4: 1c81-Fc (Nb 1c81 fused to the Fc-domain of mouse IgG1) (Fc fusion, not shown: small tags and cut ends; a dimerising Fc or GST)
chain: EVQLVESGGKLVQAGGSLRLSCSASGRTFSFSTSTMGWFRQAPGKELEFVAAIDWSDFNTYYADSVKGRFTISRHNPRNSVYLQLNSLKPEDTAVYYCAAHSETRGGTRYFDRPSLYNYWGQGTQVTVSSA
Consider B4, for which, in assay [2], the IC50 [nM], blockade of L-selectin (CD62L) shedding in transfected HEK cells, 4 mM ATP amounted to 5 nM; the IC50 [ng/ml], blockade of L-selectin (CD62L) shedding in transfected HEK cells, 4 mM ATP is 400 ng/mL; the fold enhanced potency to block activation of P2X7, Nb-Fc fusion protein against its monovalent counterpart lay in the range of 5 to 20 fold; the molar inhibition potency relative to monovalent 1c81 (CD62L shedding) was 20 fold. The molecule also gave a % of cells in the GFP+ / anti-mIgG A647+ quadrant (upper right) in assay [4] of 71%.

B5: Nb 1c81 (monovalent) (VHH)
VHH: EVQLVESGGKLVQAGGSLRLSCSASGRTFSFSTSTMGWFRQAPGKELEFVAAIDWSDFNTYYADSVKGRFTISRHNPRNSVYLQLNSLKPEDTAVYYCAAHSETRGGTRYFDRPSLYNYWGQGTQVTVSS
In assay [2], B5 yielded an IC50 [nM], blockade of L-selectin (CD62L) shedding in transfected HEK cells, 4 mM ATP of 100 nM and an IC50 [ng/ml], blockade of L-selectin (CD62L) shedding in transfected HEK cells, 4 mM ATP of 1500 ng/mL.

B6: Nb 3c23 (monovalent) (VHH)
VHH: EVQLVESGGGLVQAGGSLRLSCAASGRTFRHYAMGWFRQAPGKEREFVAAISSYGSTDYGDSVKGRFTISRDDAKNTVPLQMNSLKPEDTAVYYCAAADETLGAVPNFRLHEKYEYEYWGQGTQVTVSS
Take B6: in assay [2], the IC50 [nM], blockade of L-selectin (CD62L) shedding in transfected HEK cells, 4 mM ATP amounted to 2.7 nM and the IC50 [ng/ml], blockade of L-selectin (CD62L) shedding in transfected HEK cells, 4 mM ATP came out at 40 ng/mL.
